One assay concerns the target LFA-1 (Homo sapiens, UniProt P05107+P20701). As to the kind of experiment: Integrin binding of ICAM-R/IgG variants.
Assay [1] relates to T cells. As to the kind of experiment: IL-2 production in response to anti-CD3 and ICAM-R proteins. As to conditions: in comparison to the HSA control. The format is cell-based, human.
For assay [2], the system named is T cells. The assay can be described thus: T-cell proliferation in response to CD3 mAb with recombinant ICAM-R. The format is cell-based, human. As to conditions: in comparison to the HSA control. As for the experimental part:
T cell costimulation by recombinant ICAM-R and CD3 antibody in the presence of monoclonal antibodies which block ICAM-R adhesion to VLA-4 was measured (Example 21F). The monoclonal antibodies tested were specific for domain 3 of ICAM-R or the α4 subunit of VLA-4.
Both variants were tested for effects on T-cell proliferation in response to CD3 mAb. […] Similar levels of costimulation were induced by the LFA-1 binding D231H-Ig or wild-type ICAM-R/Ig chimera which binds both LFA-1 and VLA-4.

The target in another assay is VLA-4 (Homo sapiens, UniProt P05556+P13612). As to the kind of experiment: Integrin binding of ICAM-R/IgG variants.
The target in assay [3] is T1, LFA-1 transfected CHO cells (Homo sapiens, UniProt P05107+P20701).
T1 construct: expressed in transfected cells; host or cells: CHO cells
T1 sequence (P20701 26-1170): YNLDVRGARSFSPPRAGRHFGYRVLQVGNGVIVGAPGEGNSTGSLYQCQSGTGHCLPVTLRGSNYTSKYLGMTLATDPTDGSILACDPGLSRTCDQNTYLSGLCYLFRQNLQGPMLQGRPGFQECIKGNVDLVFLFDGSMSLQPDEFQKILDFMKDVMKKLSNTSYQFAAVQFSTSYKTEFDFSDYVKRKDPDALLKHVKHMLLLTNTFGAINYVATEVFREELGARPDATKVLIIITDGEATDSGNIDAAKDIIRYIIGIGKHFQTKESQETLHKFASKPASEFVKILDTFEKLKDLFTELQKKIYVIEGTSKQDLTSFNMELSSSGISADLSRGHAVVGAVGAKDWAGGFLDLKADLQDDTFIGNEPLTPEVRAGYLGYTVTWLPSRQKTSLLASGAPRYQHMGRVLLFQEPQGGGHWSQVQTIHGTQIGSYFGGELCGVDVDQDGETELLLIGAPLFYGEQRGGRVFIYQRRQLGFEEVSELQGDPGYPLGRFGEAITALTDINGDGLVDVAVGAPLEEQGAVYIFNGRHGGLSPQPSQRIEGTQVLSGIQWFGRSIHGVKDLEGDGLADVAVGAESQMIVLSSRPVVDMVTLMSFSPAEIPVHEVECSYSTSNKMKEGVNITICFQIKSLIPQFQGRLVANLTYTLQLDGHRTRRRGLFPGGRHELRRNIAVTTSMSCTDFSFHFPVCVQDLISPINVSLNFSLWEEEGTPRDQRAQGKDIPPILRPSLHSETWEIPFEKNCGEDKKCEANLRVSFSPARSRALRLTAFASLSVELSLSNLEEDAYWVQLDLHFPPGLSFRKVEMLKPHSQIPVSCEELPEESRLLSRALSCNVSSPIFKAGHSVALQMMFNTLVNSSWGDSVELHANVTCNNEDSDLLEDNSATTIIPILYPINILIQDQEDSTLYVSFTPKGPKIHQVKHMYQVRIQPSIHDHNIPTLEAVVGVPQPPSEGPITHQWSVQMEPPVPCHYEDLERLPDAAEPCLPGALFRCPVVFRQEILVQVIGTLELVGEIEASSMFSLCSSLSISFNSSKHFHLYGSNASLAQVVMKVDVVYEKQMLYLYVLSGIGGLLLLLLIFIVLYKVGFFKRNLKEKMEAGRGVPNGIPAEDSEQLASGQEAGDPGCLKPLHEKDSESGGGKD
T1 sequence (P05107 23-769): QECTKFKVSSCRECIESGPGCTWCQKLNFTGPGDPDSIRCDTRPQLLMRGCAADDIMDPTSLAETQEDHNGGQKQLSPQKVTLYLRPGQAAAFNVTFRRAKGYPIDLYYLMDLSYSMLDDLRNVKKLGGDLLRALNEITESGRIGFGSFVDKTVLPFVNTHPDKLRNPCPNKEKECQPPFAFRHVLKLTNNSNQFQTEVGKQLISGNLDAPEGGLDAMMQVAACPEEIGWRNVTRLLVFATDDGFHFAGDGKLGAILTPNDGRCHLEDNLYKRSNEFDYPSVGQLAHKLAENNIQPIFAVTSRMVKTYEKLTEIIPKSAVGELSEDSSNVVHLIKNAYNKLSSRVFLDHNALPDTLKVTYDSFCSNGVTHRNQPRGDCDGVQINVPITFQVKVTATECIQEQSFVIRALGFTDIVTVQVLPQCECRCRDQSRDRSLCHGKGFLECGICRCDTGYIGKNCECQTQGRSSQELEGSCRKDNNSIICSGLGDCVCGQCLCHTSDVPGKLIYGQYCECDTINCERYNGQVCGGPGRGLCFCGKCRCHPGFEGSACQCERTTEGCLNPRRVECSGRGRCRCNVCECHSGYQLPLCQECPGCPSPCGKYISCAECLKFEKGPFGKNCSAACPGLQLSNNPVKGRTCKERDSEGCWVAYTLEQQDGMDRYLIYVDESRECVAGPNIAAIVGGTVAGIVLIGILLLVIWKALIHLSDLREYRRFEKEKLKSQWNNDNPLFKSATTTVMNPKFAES
As to the kind of experiment: Binding of transfected CHO cells to immobilized chimeras. The class given is cell-based. The settings on record: only following pretreatment with PMA. The method, then:
(§1) In replicate assays, soluble ICAM-1, ICAM-R, or VCAM-1 IgG1 chimeric fusion proteins were immobilized on plastic and the ability of αd/CD18 or LFA-1 transfected CHO cells (see co-owned, concurrently filed U.S. patent application Ser. No. 08/286,889 identified as attorney docket No. 32168) to bind the immobilized ligand was determined. Transfected cells were labeled internally with calcein, washed in binding buffer (RPMI with 1% BSA), and incubated in either buffer only (with or without 10 ng/ml PMA) or buffer with anti-CD18 at 10 μg/ml. Transfected cells were added to 96-well Immulon 4 microtiter plates previously coated with soluble ICAM-1/Ig, ICAM-R/Ig or VCAM-1/Ig chimera, or bovine serum albumin (BSA) as a negative control. Wells were blocked with 1% BSA in PBS prior to addition of labeled cells. After washing the plates by immersion in PBS with 0.1% BSA for 20 minutes, total fluorescence remaining in each well was measured using a Cytofluor 2300 (Millipore, Milford, Mass.).

In assay [4] the target is T2, αd/CD18 transfected CHO cells (Homo sapiens, UniProt P05107+Q13349).
T2 construct: expressed in transfected cells; host or cells: CHO cells
T2 sequence (Q13349 18-1161): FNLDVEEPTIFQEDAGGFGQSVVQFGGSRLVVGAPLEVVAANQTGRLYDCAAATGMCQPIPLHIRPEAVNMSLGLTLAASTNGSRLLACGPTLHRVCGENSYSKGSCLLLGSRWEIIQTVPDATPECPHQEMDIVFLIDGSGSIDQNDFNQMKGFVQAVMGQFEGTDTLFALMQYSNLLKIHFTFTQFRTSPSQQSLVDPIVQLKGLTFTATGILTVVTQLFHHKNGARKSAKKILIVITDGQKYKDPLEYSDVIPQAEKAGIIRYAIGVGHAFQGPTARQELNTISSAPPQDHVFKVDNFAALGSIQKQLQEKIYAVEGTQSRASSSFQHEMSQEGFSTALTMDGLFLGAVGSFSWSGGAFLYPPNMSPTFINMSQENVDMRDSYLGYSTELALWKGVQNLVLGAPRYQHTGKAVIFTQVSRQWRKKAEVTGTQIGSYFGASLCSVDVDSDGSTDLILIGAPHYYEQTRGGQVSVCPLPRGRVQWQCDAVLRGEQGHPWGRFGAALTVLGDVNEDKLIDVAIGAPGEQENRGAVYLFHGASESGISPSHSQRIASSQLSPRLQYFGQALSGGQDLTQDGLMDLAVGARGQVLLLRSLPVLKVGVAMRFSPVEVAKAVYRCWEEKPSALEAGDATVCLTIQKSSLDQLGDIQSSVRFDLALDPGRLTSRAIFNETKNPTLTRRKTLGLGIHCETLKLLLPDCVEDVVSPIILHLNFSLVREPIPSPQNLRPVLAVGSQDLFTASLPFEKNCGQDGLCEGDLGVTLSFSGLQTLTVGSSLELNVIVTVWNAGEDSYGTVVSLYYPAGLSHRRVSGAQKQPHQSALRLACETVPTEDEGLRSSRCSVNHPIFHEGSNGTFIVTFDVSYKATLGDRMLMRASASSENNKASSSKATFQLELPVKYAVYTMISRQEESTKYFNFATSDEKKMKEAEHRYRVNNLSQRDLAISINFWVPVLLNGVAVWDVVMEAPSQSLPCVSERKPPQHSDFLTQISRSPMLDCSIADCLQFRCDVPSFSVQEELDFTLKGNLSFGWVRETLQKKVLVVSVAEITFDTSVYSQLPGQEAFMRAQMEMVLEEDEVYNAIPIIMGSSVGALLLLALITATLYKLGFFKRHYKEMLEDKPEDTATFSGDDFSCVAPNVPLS
T2 sequence (P05107 23-769): as the sequence (P05107 23-769) above
The assay can be described thus: Flow cytometry binding of soluble chimeras. As to conditions: chimera 5 μg/ml. As for the experimental part:
Binding of αd/CD18-transfected cells to soluble ICAM-1/IgG, ICAM-R/IgG, or VCAM-1/IgG chimeras was determined by flow cytometry. Approximately one million αd/CD18-transfected CHO cells (grown in spinner flasks for higher expression) per measurement were suspended in 100 μl binding buffer (RPMI and 1% BSA) with or without 10 μg/ml anti-CD18 antibody. After a 20 minute incubation at room temperature, the cells were washed in binding buffer and soluble ICAM-1/IgG or ICAM-R/IgG chimera was added to a final concentration of 5 μg/ml. Binding was allowed to proceed for 30 minute at 37° C., after which the cells were washed three times and resuspended in 100 μl binding buffer containing FITC-conjugated sheep anti-human IgG1 at a 1:100 dilution. After a 30 minute incubation, samples were washed three times and suspended in 200 μl binding buffer for analysis with a Becton Dickinson FACScan.

The target in the next assay is T3, ICAM-R (Homo sapiens, UniProt P32942).
T3 construct: express the full length ICAM-1 and ICAM-R proteins, respectively; expressed in transfected cells; host or cells: COS cells, DEAE-dextran, plasmid pcDNA1AmpICAM-R
T3 sequence (P32942 30-547): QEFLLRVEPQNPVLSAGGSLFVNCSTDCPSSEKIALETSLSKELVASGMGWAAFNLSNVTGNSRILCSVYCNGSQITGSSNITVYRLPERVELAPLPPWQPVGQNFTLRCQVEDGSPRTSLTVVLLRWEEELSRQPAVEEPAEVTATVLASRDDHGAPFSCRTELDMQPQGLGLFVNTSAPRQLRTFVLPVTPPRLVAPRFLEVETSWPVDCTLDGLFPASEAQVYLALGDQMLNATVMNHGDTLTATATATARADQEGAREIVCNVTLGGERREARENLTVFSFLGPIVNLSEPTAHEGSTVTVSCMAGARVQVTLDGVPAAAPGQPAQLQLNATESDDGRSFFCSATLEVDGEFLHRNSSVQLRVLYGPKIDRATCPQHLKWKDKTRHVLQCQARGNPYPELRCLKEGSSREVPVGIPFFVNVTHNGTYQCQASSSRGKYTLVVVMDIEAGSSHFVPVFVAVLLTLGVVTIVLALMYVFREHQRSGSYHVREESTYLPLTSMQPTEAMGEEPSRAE
The assay can be described thus: Blocking of biotinylated murine ICR-8.1 binding. The text has this:
However, antibodies containing the humanized heavy chain with the Ile2 mutation show an approximate 2-fold improvement in binding over the aforementioned antibodies. In experiments in blocking the binding of biotinylated murine ICR-8.1 to ICAM-R, the miHu/VHI/HuVK and miHuVHI/MuVK antibodies compete about 2-fold less well than the murine antibody itself.

Assay [5] deals with T2, αd/CD18 transfected CHO cells. As to the kind of experiment: Binding of transfected CHO cells to immobilized chimeras. The class given is cell-based. As to conditions: immobilized chimera. The method, then: as §1

Chain of LFA-1 (P20701 26-1170): as the sequence (P20701 26-1170) above
Chain of LFA-1 (P05107 23-769): as the sequence (P05107 23-769) above

B1: E37T-Ig: ICAM-R/IgG variant which binds VLA-4 but not LFA-1 (protein)
chain: QEFLLRVEPQNPVLSAGGSLFVNCSTDCPSSEKIALASSLSKELVASGMGWAAFNLSNVTGNSRILCSVYCNGSQITGSSNITVYGLPERVELAPLPPWQPVGQNFTLRCQVEGGSPRTSLTVVLLRWEEELSRQPAVEEPAEVTATVLASRDDHGAPFSCRTELDMQPQGLGLFVNTSAPRQLRTFVLPVTPPRLVAPRFLEVETSWPVDCTLDGLFPASEAQVYLALGDQMLNATVMNHGDTLTATATATARADQEGAREIVCNVTLGGERREARENLTVFSFLGPIVNLSEPTAHEGSTVTVSCMAGARVQVTLDGVPAAAPGQTAQLQLNATESDDGRSFFCSATLEVDGEFLHRNSSVQLRVLYGPKIDRATCPQHLKWKDKTRHVLQCQARGNPYPELRCLKEGSSREVPVGIPFFVNVTHNGTYQCQASSSRGKYTLVVVMDIEAFSSH
modifications: left off: a dimerising Fc or GST
Take B1: the LFA-1 binding result with LFA-1 was “not LFA-1”. For the same molecule, the “IL-2 production in response to CD3 mAb” value in the assay on T cells [1] is “inhibited IL-2 production”. Also, the “T-cell proliferation in response to CD3 mAb” value in the assay with T cells [2] is recorded as “markedly inhibited T-cell proliferation”. Further, the VLA-4 binding entry with VLA-4 is on record as “binds VLA-4”.

B2: D231H-Ig: ICAM-R/IgG variant with reduced VLA-4 binding, full LFA-1 binding (protein)
chain: QEFLLRVEPQNPVLSAGGSLFVNCSTDCPSSEKIALETSLSKELVASGMGWAAFNLSNVTGNSRILCSVYCNGSQITGSSNITVYGLPERVELAPLPPWQPVGQNFTLRCQVEGGSPRTSLTVVLLRWEEELSRQPAVEEPAEVTATVLASRDDHGAPFSCRTELDMQPQGLGLFVNTSAPRQLRTFVLPVTPPRLVAPRFLEVETSWPVDCTLDGLFPASEAQVYLALGHQMLNATVMNHGDTLTATATATARADQEGAREIVCNVTLGGERREARENLTVFSFLGPIVNLSEPTAHEGSTVTVSCMAGARVQVTLDGVPAAAPGQTAQLQLNATESDDGRSFFCSATLEVDGEFLHRNSSVQLRVLYGPKIDRATCPQHLKWKDKTRHVLQCQARGNPYPELRCLKEGSSREVPVGIPFFVNVTHNGTYQCQASSSRGKYTLVVVMDIEAFSSH
modifications: left off: a dimerising Fc or GST
Take B2: the LFA-1 binding entry with LFA-1 is recorded as “retaining full LFA-1 binding capacity”. Moreover, the “IL-2 production in response to CD3 mAb” value in the assay on T cells [1] is “to a lesser extent”. Moreover, the “T-cell proliferation in response to CD3 mAb” value in the assay on T cells [2] is on record as “enhanced CD3 mAb driven T-cell proliferation”. In addition, the VLA-4 binding result with VLA-4 is on record as “reduced VLA-4 binding capacity”.

B3: ICAM-1/IgG: soluble ICAM-1 IgG1 chimeric fusion protein (protein)
chain: QTSVSPSKVILPRGGSVLVTCSTSCDQPKLLGIETPLPKKELLLPGNNRKVYELSNVQEDSQPMCYSNCPDGQSTAKTFLTVYWTPERVELAPLPSWQPVGKNLTLRCQVEGGAPRANLTVVLLRGEKELKREPAVGEPAEVTTTVLVRRDHHGANFSCRTELDLRPQGLELFENTSAPYQLQTFVLPATPPQLVSPRVLEVDTQGTVVCSLDGLFPVSEAQVHLALGDQRLNPTVTYGNDSFSAKASVSVTAEDEGTQRLTCAVILGNQSQETLQTVTIYSFPAPNVILTKPEVSEGTEVTVKCEAHPRAKVTLNGVPAQPLGPRAQLLLKATPEDNGRSFSCSATLEVAGQLIHKNQTRELRVLYGPRLDERDCPGNWTWPENSQQTPMCQAWGNPLPELKCLKDGTFPLPIGESVTVTRDLEGTYLCRARSTQGEVTRKVTVNVLSPRYE
modifications: left off: a dimerising Fc or GST
notes: soluble ICAM-1 IgG1 chimeric fusion protein
For the molecule B3, the “increase in binding of LFA-1 transfected cells” value in assay [3] was 2-3 fold. Also, in assay [4], the “αd/CD18 transfectants binding soluble chimera” value is given as “no binding”.

B4: miHu/VHI/HuVK: ICR-8.1 miHuVHI (Val2 to Ile2) heavy chain with humanized VK (antibody, V domains shown)
VH: QIQLVQSGAEVKKPGASVKVSCKASGYTFTDCIILWVRQAPGQGLEWMGKINPYFGTTTYAQKFQGRVTITADTSTSTAYMELSSLRSEDTAVYYCARKEAYPDAMDYWGQGTLVTVSS
VL: DIVMTQSPLSLPVTPGEPASISCRSSQSLVHSNGDTYLHWYLQKPGQSPQLLIYKVSNRFSGVPDRFSGSGSGTDFTLKISRVEAEDVGVYYCSQSTHVPYTFGQGTKVEIK
As for B4, in the assay with ICAM-R, the “compete less well than murine ICR-8.1 in blocking binding of biotinylated murine ICR-8.1” value was “about 2 fold”.

B5: VCAM-1/IgG: soluble VCAM-1 IgG1 chimeric fusion protein (protein)
chain: FKIETTPESRYLAQIGDSVSLTCSTTGCESPFFSWRTQIDSPLNGKVTNEGTTSTLTMNPVSFGNEHSYLCTATCESRKLEKGIQVEIYSFPKDPEIHLSGPLEAGKPITVKCSVADVYPFDRLEIDLLKGDHLMKSQEFLEDADRKSLETKSLEVTFTPVIEDIGKVLVCRAKLHIDEMDSVPTVRQAVKELQVYISPKNTVISVNPSTKLQEGGSVTMTCSSEGLPAPEIFWSKKLDNGNLQHLSGNATLTLIAMRMEDSGIYVCEGVNLIGKNRKEVELIVQEKPFTVEISPGPRIAAQIGDSVMLTCSVMGCESPSFSWRTQIDSPLSGKVRSEGTNSTLTLSPVSFENEHSYLCTVTCGHKKLEKGIQVELYSFPRDPEIEMSGGLVNGSSVTVSCKVPSVYPLDRLEIELLKGETILENIEFLEDTDMKSLENKSLEMTFIPTIEDTGKALVCQAKLHIDDMEFEPKQRQSTQTLYVNVAPRDTTVLVSPSSILEEGSSVNMTCLSQGFPAPKILWSRQLPNGELQPLSENATLTLISTKMEDSGVYLCEGINQAGRSRKEVELIIQVTPKDIKLTAFPSESVKEGDTVIISCTCGNVPETWIILKKKAETGDTVLKSIDGAYTIRKAQLKDAGVYECESKNKVGSQLRSLTLDVQGRENNKDYFSPE
modifications: left off: a dimerising Fc or GST
notes: soluble VCAM-1 IgG1 chimeric fusion protein
With B5, the “increase in binding of αd/CD18 co-transfectants over BSA coated wells” value in assay [5] was “No detectable binding”. In addition, the “αd/CD18 transfectants binding soluble chimera” value in assay [4] is reported as “no binding”.

The values above are taken from patent US20040248211A1, “ICAM-related protein” (priority 1992, published 2004).
